The source of these data is patent publication US20030040614.

The series has as its system GsuI restriction endonuclease. The settings on record: methylation of top strand; bottom strand 664; B+ buffer, 30 uM AdoMet, 37 C 3 h.

On to “AGTTCTGGAGCATCGTTCACCGGTTACAAC / TGGTTGTAACCGGTAACGGATGCTCCAGAACTTCTC [duplex #1 GsuI site]”, for which the activity (3H radioactivity (units not stated)) worked out at 13200.
